We go through three substances from patent publication US20230233645A1, “EFFECTIVE TREATMENTS FOR VASCULAR ASSOCIATED MACULOPATHY, SEVERE MACULOPATHY, LATE-STAGE MACULOPATHY, AND ABERRANT CHORIOCAPILLARIS” (UNIVERSITY OF UTAH RESEARCH FOUNDATION, priority 2011, published 2023).

In series [1] the test system is DQ elastin. The experiment in a line: In vitro elastin degradation assay using DQ elastin. The class given is biochemical. Particulars: DQ elastin substrate. On the procedure: Therefore, studies were performed to determine whether HTRA1 degrades elastin, a major component of Bruch's membrane. Recombinant HTRA1 was incubated with dye-labeled elastin at 37° C. for two hrs and the fluorescence of the released elastin peptides was monitored at 513 nm. […] In an additional positive control assay, HTRA1 elastase activity was measured by fluorescence using various concentrations of elastase enzyme starting with 0.04 ng/well of porcine pancreatic elastase and 100 ng/well of ProteaImmun HtrA1. DQ Elastin substrate was 25 ug/ml.
Recombinant HtrA1 protein expressed and purified from Sf9 cells was purchased from ProteaImmun (Cat. #30600103). The HtrA1 elastase activity was measured using a fluorescent EnzChekElastase Assay Kit from Invitrogen (Cat. #E12056) using the protocol provided, except substrate concentration was 12.5 µg/mL. HtrA1 concentration was titrated from 200-12.5 ng/well in two-fold dilutions. Activity was measured in 30-minute increments for a total of 2 hours.
The explanation for the elastin degradation in both the Bruch's membrane and the choroid vessels in the HTRA1 mice is that the protease activity of overexpressed HTRA1, which is secreted from RPE, caused the degeneration. Since HTRA1 was not known to have elastase activity, an in vitro elastin degradation assay was performed using DQ elastin, a soluble elastin labeled with quenched BODIPY FL dye, as a substrate. Purified recombinant human HTRA1 degraded elastin with a specific activity of 4.4±0.8 u/mg (n=3). […] To eliminate the possibility that the depletion of the elastic layers of the choroidal vessels and Bruch's membrane was the result of downregulation of elastin expression, we analyzed the protein level of soluble elastin in the RPE/choroid of hHTRA1^+ and WT mice by western blot. […] This is similar to what has been observed in human donors with AMD and with aberrant choriocapillaris lobules.

Series [2] has as its target HTRA1 (Homo sapiens, UniProt Q92743). The conditions noted are these: binds covalently to the active-site serine of HTRA1; cited from earlier work.

HTRA1, sequence (Q92743 23-480): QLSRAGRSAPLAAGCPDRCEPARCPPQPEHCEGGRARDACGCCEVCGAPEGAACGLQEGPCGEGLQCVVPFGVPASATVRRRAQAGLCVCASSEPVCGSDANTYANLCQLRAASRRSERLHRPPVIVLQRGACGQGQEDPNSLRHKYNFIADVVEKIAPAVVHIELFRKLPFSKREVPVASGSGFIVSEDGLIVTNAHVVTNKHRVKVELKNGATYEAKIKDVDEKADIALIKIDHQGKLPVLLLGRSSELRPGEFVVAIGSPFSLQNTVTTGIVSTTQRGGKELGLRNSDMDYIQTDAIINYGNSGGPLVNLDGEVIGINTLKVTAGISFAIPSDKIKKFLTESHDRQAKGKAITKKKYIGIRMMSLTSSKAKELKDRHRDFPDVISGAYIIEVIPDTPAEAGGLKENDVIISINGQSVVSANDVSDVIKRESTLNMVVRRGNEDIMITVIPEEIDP

On to “porcine pancreas elastase: reference elastase enzyme”, for which the “specific activity of elastin degradation” value in series [1] is given as 135±5.5 u/mg. Usually IC50 stands for the concentration at which inhibition is half-maximal. For the substance DPMFKLboroV, the IC50 in series [2] is 2600 nM.

“recombinant human HTRA1: purified recombinant human HTRA1 serine protease”: in series [1], the “elastase activity, times less than that of porcine pancreas elastase” value was approximately 30 times and the “specific activity of elastin degradation” value stood at 4.4±0.8 u/mg.
